Target: mite allergen specific IgE of atopic subjects
Assay: cell-based or functional assay

B1: CHO-K1-expressed three-in-one chimeric mite allergen D1proenzD1LB5LD2 (protein)
chain: RPSSIKTFEEYKKAFNKSYATFEDEEAARKNFLESVKYVQSNGGAINHLSDLSLDEFKNRFLMSAEAFEHLKTQFDLNAETNACSINGNAPAEIDLRQMRTVTPIRMQGGCGSCWAFSGVAATESAYLAYRNQSLDLAEQELVDCASQHGCHGDTIPRGIEYIQHNGVVQESYYRYVAREQSCRRPNAQRFGISNYCQIYPPNVNKIREALAQTHSAIAVIIGIKDLDAFRHYDGRTIIQRDNGYQPNYHAVNIVGYSNAQGVDYWIVRNSWDTNWGDNGYGYFAANIDLMMIEEYPYVVILGGGSGGGSGGQEHKPKKDDFRNEFDHLLIEQANHAIEKGEHQLLYLQHQLDELNENKSKELQEKIIRELDVVCAMIEGAQGALERELKRTDLNILERFNYEEAQTLSKILLKDLKETEQKVKDIQTQGGGSGGGSGGDQVDVKDCANHEIKKVLVPGCHGSEPCIIHRGKPFQLEAVFEANQNTKTAKIEIKASIDGLEVDVPGIDPNACHYMKCPLVKGQQYDIKYTWNVPKIAPKSENVVVTVKVMGDDGVLACAIATHAKIRD
- fold decrease in IgE-mediated histamine release by human basophils: 100 times
- histamine release in basophils (whole blood of two atopic individuals): 104 fold
- skin prick test, positive skin reactivity in 15 atopic subjects: 26.6%

— patent publication US20070065468A1
